Reference: article PMC5980749

Target: Wild-type E. coli 70S ribosomes, purified from strain MRE600 (E. coli (endogenous in MRE600)) (UniProt P0A7R5)
Test: co-sedimentation

Escherichia coli transcription factor NusG, His-tagged, wild type (from UniProt P0AFG0 1-181) (natural protein)
percent of total NusG recovered in the ribosomal pellet: 19% | stoichiometry N: 1 NusG per 70S
